Square brackets hold non-standard residues; d marks the D form. Ends that are not written are not given here. hArg = N=C(N)NCCCC[C@H](N)C(=O)O; Nle = CCCC[C@H](N)C(=O)O; Aib = CC(C)(N)C(=O)O
T1: wild-type human PTH/PTHrP receptor (hP1R-WT) (human, UniProt Q03431 27-593)
T1 sequence (looked up): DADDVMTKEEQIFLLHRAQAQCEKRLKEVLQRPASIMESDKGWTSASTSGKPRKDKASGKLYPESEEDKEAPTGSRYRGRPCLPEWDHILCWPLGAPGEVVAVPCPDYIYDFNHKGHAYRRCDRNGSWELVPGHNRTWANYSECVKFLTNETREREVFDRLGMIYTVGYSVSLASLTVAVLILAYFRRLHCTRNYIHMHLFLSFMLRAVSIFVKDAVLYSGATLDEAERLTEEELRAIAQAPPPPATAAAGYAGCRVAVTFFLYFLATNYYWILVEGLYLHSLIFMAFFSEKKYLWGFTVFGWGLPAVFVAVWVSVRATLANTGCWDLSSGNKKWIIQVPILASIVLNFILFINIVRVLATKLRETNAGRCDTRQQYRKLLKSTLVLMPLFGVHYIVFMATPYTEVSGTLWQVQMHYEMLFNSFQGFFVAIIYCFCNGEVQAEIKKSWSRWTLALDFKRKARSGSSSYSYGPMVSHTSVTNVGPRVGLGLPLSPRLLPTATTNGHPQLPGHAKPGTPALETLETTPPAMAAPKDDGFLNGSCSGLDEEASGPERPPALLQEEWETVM

T2: truncated human P1R deleted for residues (24-181) (hP1R-delNt) (human, UniProt Q03431 182-593)
T2 construct: whole, on cells; also called delNT receptor
T2 sequence (looked up): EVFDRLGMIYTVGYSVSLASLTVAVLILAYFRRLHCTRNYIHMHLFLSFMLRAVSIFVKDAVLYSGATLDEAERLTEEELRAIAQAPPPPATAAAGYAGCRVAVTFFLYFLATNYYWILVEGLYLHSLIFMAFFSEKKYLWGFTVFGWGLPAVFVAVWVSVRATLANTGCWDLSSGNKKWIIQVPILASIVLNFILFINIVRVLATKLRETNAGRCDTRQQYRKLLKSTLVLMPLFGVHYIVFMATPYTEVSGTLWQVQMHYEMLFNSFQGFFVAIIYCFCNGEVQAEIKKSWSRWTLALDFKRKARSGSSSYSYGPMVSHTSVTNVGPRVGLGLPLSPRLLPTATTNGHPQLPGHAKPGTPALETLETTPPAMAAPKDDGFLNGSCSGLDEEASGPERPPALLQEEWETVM

B1: [Aib^1,3,M]PTH(1-21) (peptide)
peptide: [Aib]V[Aib]EIQL[Nle]HQ[hArg]AKWLASVRRY-NH2
modifications: N-terminus assumed
SMILES: CCCC[C@H](NC(=O)[C@H](CC(C)C)NC(=O)[C@H](CCC(N)=O)NC(=O)[C@@H](NC(=O)[C@H](CCC(=O)O)NC(=O)C(C)(C)NC(=O)[C@@H](NC(=O)C(C)(C)N)C(C)C)[C@@H](C)CC)C(=O)N[C@@H](Cc1c[nH]cn1)C(=O)N[C@@H](CCC(N)=O)C(=O)N[C@@H](CCCCNC(=N)N)C(=O)N[C@@H](C)C(=O)N[C@@H](CCCCN)C(=O)N[C@@H](Cc1c[nH]c2ccccc12)C(=O)N[C@@H](CC(C)C)C(=O)N[C@@H](C)C(=O)N[C@@H](CO)C(=O)N[C@H](C(=O)N[C@@H](CCCNC(=N)N)C(=O)N[C@@H](CCCNC(=N)N)C(=O)N[C@@H](Cc1ccc(O)cc1)C(N)=O)C(C)C
notes: unlabeled peptide; also called 674 [Aib^1,3, M]PTH (1-21); 674 [Aib^1,3M]PTH(1-21)
B2: [Aib^1,3,M]PTH(1-14) (peptide)
peptide: [Aib]V[Aib]EIQLMHQ[hArg]AKW-NH2
modifications: N-terminus assumed
SMILES: CC[C@H](C)[C@H](NC(=O)[C@H](CCC(=O)O)NC(=O)C(C)(C)NC(=O)[C@@H](NC(=O)C(C)(C)N)C(C)C)C(=O)N[C@@H](CCC(N)=O)C(=O)N[C@@H](CC(C)C)C(=O)N[C@@H](CCSC)C(=O)N[C@@H](Cc1c[nH]cn1)C(=O)N[C@@H](CCC(N)=O)C(=O)N[C@@H](CCCCNC(=N)N)C(=O)N[C@@H](C)C(=O)N[C@@H](CCCCN)C(=O)N[C@@H](Cc1c[nH]c2ccccc12)C(N)=O
notes: also called 671 [Aib^1,3, M]PTH (1-14); 671 [Aib^1,3M]PTH(1-14)

Key:
[1] = target: T1, wild-type human PTH/PTHrP receptor …; experiment: cell-based or functional assay
[2] = target: T2, truncated human P1R deleted for …; experiment: Scatchard transformation of homologous competition binding, COS-7 cells
Protocol: The cells were subsequently lysed with 0.5 mL […] NaOH and counted for radioactivity. For each tracer and in each experiment, the non-specific binding was determined as the radioactivity that bound in the presence of the same unlabeled peptide at a concentration of 1 μM, and was ˜1% of total radioactivity added for each tracer. The maximum specific binding (B₀) was the total radioactivity bound in the absence of competing ligand, corrected for nonspecific binding, and for each tracer, ranged from 8% to 20% of the total radioactivity added. Nonlinear regression was used to calculate binding IC₅₀ values (see below). Scatchard transformations of homologous competition binding data derived from studies with 26 fmol of ¹²⁵I-[Aib^{1,3},M]PTH(1-21) were employed for estimations of apparent equilibrium dissociation constant (kDapps) and total number of ligand binding sites (Bₘₐₓ), assuming a single class of binding sites and equal affinities of the iodinated and non iodinated ligand.
To potentially improve affinity of this peptide, the paired Aib-1,3 modifications were introduced to produce [Aib^{1,3},M]PTH(1-21). […] The total specific binding observed in COS-7 cells tranfected with vector DNA alone was<2% of total radioactivity added. This radioligand, therefore, enabled competition binding experiments to be performed with both the wild-type and truncated PTH-1 receptors.

[3] = target: T1, wild-type human PTH/PTHrP receptor …; experiment: competition binding, 125I-[M]PTH(1-21) tracer, HKRK-B28 cells, 4 h at 4 C
Outline: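 Cells are incubated with about 26 fmol ¹²⁵I-[M]PTH(1-21) tracer and unlabeled competitor in 300 μL for 4 h at 4 °C, then washed, lysed and counted. Nonspecific binding is defined with 1 μM of the same unlabeled peptide. IC50 values come from nonlinear regression, and the peptides are rat-PTH-based and C-terminally amidated.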

[4] = target: T1, wild-type human PTH/PTHrP receptor …; experiment: competition binding, COS-7 cells expressing P1R-WT
[5] = target: T1, wild-type human PTH/PTHrP receptor …; experiment: competition binding on HKRK-B28 cells
Protocol: Competition Binding. Binding reactions were performed with HKRK-B28 cells or in COS-7 cells in 24-well plates. The cells were rinsed with 0.5 mL of binding buffer, and then treated successively with 100 μL binding buffer, 100 μL of binding buffer containing various amounts of unlabeled competitor ligand, and 100 μL of binding buffer containing ca. 100,000 cpm of ¹²⁵I-[M]PTH(1-21) or ¹²⁵I-[Aib^{1,3},M]PTH(1-21)} (ca. 26 fmol; final volume=300 μL). Incubations were 4 to 6 h at 4° C., at which time near equilibrium conditions were attained. Cells were then placed on ice, the binding medium was removed, and the monolayer was rinsed three times with 0.5 mL of cold binding buffer. The cells were subsequently lysed with 0.5 mL […] and counted for radioactivity. For each tracer and in each experiment, the non-specific binding was determined as the radioactivity that bound in the presence of the same unlabeled peptide at a concentration of 1 μM, and was ˜1% of total radioactivity added for each tracer. The maximum specific binding (B₀) was the total radioactivity bound in the absence of competing ligand, corrected for nonspecific binding, and for each tracer, ranged from 8% to 20% of the total radioactivity added. Nonlinear regression was used to calculate binding IC₅₀ values (see below). […]

Binder | cAMP EC50 [1] [nM] | cAMP EMax(obs.) [1] [pmole/well] | fold weaker affinity at P1R-delNt than at P1R-WT [2] [fold] | IC50 [3] [nM] | fold stronger binding affinity than [M]PTH(1-14) [4] [fold] | fold higher apparent affinity than [M]PTH(1-14) [5] [fold]
B1 | 4.3 | 284 | < 2 | 31 | – | –
B2 | 1.1 | 278 | – | 130 | ~10 | 100
